Results reported in patent US7115260B2, “Interleukin-1β converting enzyme like apoptotic protease-6” (Human Genome Sciences, Inc., priority 1996, dated 2006).
Peptide text beside a SMILES is read from it. * marks the point of attachment. Cbz = O=C(OCc1ccccc1)*; CH2F = FC*

T1: ICE LAP-6 (Homo sapiens, UniProt P55211, A28V/A96G/Q221R)
T1 construct: transiently transfected with an expression vector encoding the full-length ICE LAP-6 protein (ICE LAP-6-flag); expressed in transfected cells; host or cells: MCF7 breast carcinoma cells, pcDNA3 vector
T1 sequence (P55211 1-416 A28V/A96G/Q221R): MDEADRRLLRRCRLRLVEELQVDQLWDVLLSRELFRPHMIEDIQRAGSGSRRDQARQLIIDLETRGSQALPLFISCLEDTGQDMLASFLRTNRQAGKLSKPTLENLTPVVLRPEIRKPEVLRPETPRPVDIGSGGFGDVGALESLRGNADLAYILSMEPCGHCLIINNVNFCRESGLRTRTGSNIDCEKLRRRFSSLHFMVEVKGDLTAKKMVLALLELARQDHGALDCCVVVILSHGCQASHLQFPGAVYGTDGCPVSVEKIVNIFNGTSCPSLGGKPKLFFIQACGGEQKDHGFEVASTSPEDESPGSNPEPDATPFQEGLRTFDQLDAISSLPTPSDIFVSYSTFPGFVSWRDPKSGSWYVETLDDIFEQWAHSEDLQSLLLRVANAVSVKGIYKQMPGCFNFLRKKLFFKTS

T2: pro-ICE LAP-6 (Homo sapiens, UniProt P55211, A28V/A96G/Q221R)
T2 construct: made in house; host or cells: cell-free in vitro transcription/translation, TNT kit (Promega)
T2 sequence (P55211 1-416 A28V/A96G/Q221R): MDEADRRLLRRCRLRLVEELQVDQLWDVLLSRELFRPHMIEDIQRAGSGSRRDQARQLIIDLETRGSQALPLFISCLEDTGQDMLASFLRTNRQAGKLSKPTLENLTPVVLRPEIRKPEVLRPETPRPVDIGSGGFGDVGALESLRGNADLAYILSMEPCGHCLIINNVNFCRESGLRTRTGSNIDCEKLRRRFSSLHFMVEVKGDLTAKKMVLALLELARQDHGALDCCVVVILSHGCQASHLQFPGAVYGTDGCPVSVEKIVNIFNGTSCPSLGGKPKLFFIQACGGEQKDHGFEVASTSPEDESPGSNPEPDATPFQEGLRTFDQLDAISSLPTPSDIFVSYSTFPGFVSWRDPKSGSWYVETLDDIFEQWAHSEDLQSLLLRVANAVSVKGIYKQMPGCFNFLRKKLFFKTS

T3: pro-Yama (Homo sapiens, UniProt P42574)
T3 construct: His6; made in house; host or cells: cell-free in vitro transcription/translation, TNT kit (Promega)
T3 sequence (P42574 1-277): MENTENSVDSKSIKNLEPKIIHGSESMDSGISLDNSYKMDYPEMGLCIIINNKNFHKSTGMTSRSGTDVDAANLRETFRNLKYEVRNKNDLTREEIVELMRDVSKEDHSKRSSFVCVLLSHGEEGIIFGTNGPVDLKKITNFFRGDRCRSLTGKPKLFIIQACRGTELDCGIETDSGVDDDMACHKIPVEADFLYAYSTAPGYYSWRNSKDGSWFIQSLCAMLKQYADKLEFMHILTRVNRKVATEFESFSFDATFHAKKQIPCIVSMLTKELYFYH

B1: Yama: ICE/Ced-3 family cysteine protease; p17 and p12 subunits derived from a 32 kDa proenzyme (protein)
chain: MENTENSVDSKSIKNLEPKIIHGSESMDSGISLDNSYKMDYPEMGLCIIINNKNFHKSTGMTSRSGTDVDAANLRETFRNLKYEVRNKNDLTREEIVELMRDVSKEDHSKRSSFVCVLLSHGEEGIIFGTNGPVDLKKITNFFRGDRCRSLTGKPKLFIIQACRGTELDCGIETDSGVDDDMACHKIPVEADFLYAYSTAPGYYSWRNSKDGSWFIQSLCAMLKQYADKLEFMHILTRVNRKVATEFESFSFDATFHAKKQIPCIVSMLTKELYFYHHHHHHH
B2: ICE LAP-6: novel human member of the ICE/ced-3 family of cysteine proteases, active site QACGG, predicted 45.8 kD (protein)
chain: MDEADRRLLRRCRLRLVEELQVDQLWDVLLSRELFRPHMIEDIQRAGSGSRRDQARQLIIDLETRGSQALPLFISCLEDTGQDMLASFLRTNRQAGKLSKPTLENLTPVVLRPEIRKPEVLRPETPRPVDIGSGGFGDVGALESLRGNADLAYILSMEPCGHCLIINNVNFCRESGLRTRTGSNIDCEKLRRRFSSLHFMVEVKGDLTAKKMVLALLELARQDHGALDCCVVVILSHGCQASHLQFPGAVYGTDGCPVSVEKIVNIFNGTSCPSLGGKPKLFFIQACGGEQKDHGFEVASTSPEDESPGSNPEPDATPFQEGLRTFDQLDAISSLPTPSDIFVSYSTFPGFVSWRDPKSGSWYVETLDDIFEQWAHSEDLQSLLLRVANAVSVKGIYKQMPGCFNFLRKKLFFKTSHHHHHH
B3: ICE LAP-6 mt: mutant version of ICE LAP-6 with the catalytic cysteine residue (Cys286) altered to an alanine (protein, UniProt P55211 1-416, looked up, variant C287A)
chain: MDEADRRLLRRCRLRLVEELQVDQLWDALLSRELFRPHMIEDIQRAGSGSRRDQARQLIIDLETRGSQALPLFISCLEDTGQDMLASFLRTNRQAAKLSKPTLENLTPVVLRPEIRKPEVLRPETPRPVDIGSGGFGDVGALESLRGNADLAYILSMEPCGHCLIINNVNFCRESGLRTRTGSNIDCEKLRRRFSSLHFMVEVKGDLTAKKMVLALLELAQQDHGALDCCVVVILSHGCQASHLQFPGAVYGTDGCPVSVEKIVNIFNGTSCPSLGGKPKLFFIQAAGGEQKDHGFEVASTSPEDESPGSNPEPDATPFQEGLRTFDQLDAISSLPTPSDIFVSYSTFPGFVSWRDPKSGSWYVETLDDIFEQWAHSEDLQSLLLRVANAVSVKGIYKQMPGCFNFLRKKLFFKTS

Assays:
ICE LAP-6 = molecular target: T1, ICE LAP-6; experiment: Inhibition of ICE LAP-6 induced apoptosis in transfected MCF7 cells; type: cell-based; settings: MCF7 cells transfected with ICE LAP-6-flag
Description: (§1) MCF7 breast carcinoma cells were transiently transfected as described previously (Chinnaiyan, A. M., et al (1995) Cell 81, 505–512). Briefly, 2.5×10^5 MCF7 cells were transfected with 0.25 μg of the reporter plasmid pCMV β-galactosidase plus 1 μg of test plasmid in 6-well tissue culture dishes using lipofectamine as per manufacturer's instructions. The transfection was carried out in 1 ml of Opti-MEM Minimal Media (GMBCO-BRL) and after 5 hours, 1 ml of serum-containing growth media was added. Two days later, the cells were fixed with 0.5% glutaraldehyde and stained with X-gal for 4 hours. Cells were visualized by phase-contrast microscopy. At least 300 β-galactosidase-positive cells were counted for each transfection (n=3) and identified as apoptotic or nonapoptotic based on morphological alterations typical of adherent cells undergoing apoptosis including becoming rounded, condensed, and detaching from the dish (Cohen, J. J. (1993) Immunology Today 14, 126–130). […] Samples were analyzed by immunoblotting with anti-PARP monoclonal antibody C-2-10 as described previously Tewari, M., et al. (1995) Cell 81, 801–809).
(§2) To study the functional role of ICE LAP-6, MCF7 breast carcinoma cells were transiently transfected with an expression vector encoding the full-length ICE LAP-6 protein (ICE LAP-6-flag) and subsequently assessed for apoptotic features. […]

pro-ICE LAP-6 = molecular target: T2, pro-ICE LAP-6; experiment: Proteolytic activation of in vitro-translated pro-ICE LAP-6 by granzyme B; type: biochemical; settings: 20 pmole granzyme B, 4 hours at 37° C., SDS-PAGE
pro-Yama = molecular target: T3, pro-Yama; experiment: Proteolytic activation of in vitro-translated pro-Yama by granzyme B; type: biochemical; settings: purified granzyme B
PARP = PARP cleavage by granzyme B-processed protease (anti-PARP immunoblot); type: biochemical; settings: after granzyme B processing, anti-GraB added, 2 hours, 37° C.
Description: as §1, with “801–809). […]” for “801–809).”

[1] = test system: MCF7 breast carcinoma cells; experiment: Apoptosis assay in transiently transfected MCF7 cells; type: cell-based; settings: transient transfection of expression vector, morphology of β-galactosidase-positive cells, two days
Description: as §1, §2

Row | Molecule | ability to cleave PARP (PARP) | induction of apoptosis / cell death on overexpression [1] | also measured
1 | COC(=O)C[C@H](NC(=O)[C@H](C)NC(=O)[C@@H](NC(=O)OCc1ccccc1)C(C)C)C(=O)CF [z-VAD fmk] (Cbz-Val-Ala-Asp(OMe)-CH2F) | – | – | inhibition of ICE LAP-6 induced apoptosis (ICE LAP-6): inhibited
2 | granzyme B: secreted serine protease, effector of cytotoxic T cell-mediated apoptosis | – | – | proteolytic processing of pro-ICE LAP-6 (pro-ICE LAP-6): proteolytically processed into 3 fragments; activation of Yama in vitro (pro-Yama): directly activates
3 | B1 | active | – | –
4 | B2 | active | caused cell death | –
5 | B3 | – | did not induce apoptotic changes | –
